These results are taken from patent US20110275122A1 (Amgen, published 2011).

Sequences and labels used below:
B1: SEQ ID NO: 254 (peptide)
peptide: IEGRWPPPQFPVTEHHSLERVGRRPPNAQMPQSIFICGQNEGPTFQYCQRCLREHS
B2: SEQ ID NO: 246 (peptide)
peptide: IEGQSWEFENDRVPAHSLERVLLLRRVPTEPSGPSICAQIEGPTFKQWQECINGHS
B3: SEQ ID NO: 257 (peptide)
peptide: IEGYVGGPYEQTNSLERVPPTLAWKYGPRTPSICAQIEGPTFKQWQQCLSDHS
B4: SEQ ID NO: 250 (peptide)
peptide: IEGRWPPPQFPVTQQHSLERVGRPPPSVELPRPTFVCAQIEGPTFKQWQRCLREHS
B5: SEQ ID NO: 284 (peptide)
peptide: IEGHGSQKPTAARALESTSSLTTRTRTTSICAQQDMVGPTIRQWLAARACI
B6: SEQ ID NO: 249 (peptide)
peptide: IEGEPVSDGKRRPRVHSLERVDAVHAKVGPSICAQIEGPTFKQWQKCKRAHS

This assay addresses T1, c-mpl receptor (Homo sapiens (Human), UniProt P40238 26-491, The MPL used for panning was biotinylated; the biotin site is not stated and is not carried by the letters.).
T1 construct: also called TPO receptor
T1 sequence: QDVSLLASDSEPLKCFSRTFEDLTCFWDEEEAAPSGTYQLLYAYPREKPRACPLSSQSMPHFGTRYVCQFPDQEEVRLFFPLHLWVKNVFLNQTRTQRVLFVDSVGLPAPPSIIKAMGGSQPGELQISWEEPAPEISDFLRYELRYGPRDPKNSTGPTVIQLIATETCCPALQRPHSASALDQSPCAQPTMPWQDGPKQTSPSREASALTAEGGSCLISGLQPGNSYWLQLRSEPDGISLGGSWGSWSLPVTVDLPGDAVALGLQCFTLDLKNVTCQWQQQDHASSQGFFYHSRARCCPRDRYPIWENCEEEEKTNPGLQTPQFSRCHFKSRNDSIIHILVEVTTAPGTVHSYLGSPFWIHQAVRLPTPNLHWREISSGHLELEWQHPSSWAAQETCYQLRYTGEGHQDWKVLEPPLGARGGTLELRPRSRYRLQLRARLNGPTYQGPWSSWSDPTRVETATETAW
The experiment in a line: phage-ELISA. (In an ELISA, binding on a coated surface is turned into a signal by an enzyme label.)
Consider B1, for which the Relative activity was found to be 137. For IEGPTLHEWLRWLRQHS [SEQ ID NO: 291] the value was 78.3. For IEGPTFKQWQVWRNRHS [SEQ ID NO: 271] the value was 108.

IEGEALVFWWAARA [SEQ ID NO: 307]: the Relative activity amounted to 40.3. As to IEGWIWRQWLAARA [SEQ ID NO: 286], the Relative activity amounted to 91.4. The figure for IEGWVWCQWLAARA [SEQ ID NO: 290] is 79.1. For IEGWVWRQWLAARA [SEQ ID NO: 301] the value was 52.1; for IEGWIWRPWLAARA [SEQ ID NO: 287], 83.3; for IEGWVWWPWLAARA [SEQ ID NO: 296], 63.5.

Take IEGQSWLRRLHWKEEHS [SEQ ID NO: 272]: the Relative activity was found to be 108. For IAQVRMLGRFTLLVLSRARAASTQLSFQHSICAQIEGGAQTQWDAARA [SEQ ID NO: 305] the value was 47.4; for B2, 173; for IEGPTFKQWQRWRLLHS [SEQ ID NO: 251], 149. Regarding IEGPTFKQWQAARMHHS [SEQ ID NO: 265], the Relative activity was 122. Molecule IEGRHYQKWPARRLGHS [SEQ ID NO: 302] came in with a Relative activity of 52. For IEGEIWAGPGAARA [SEQ ID NO: 306] the value was 46.5; for IEGPTFKQWQGRSKRHS [SEQ ID NO: 258], 131; for IEGFVGTVDWRQGRPHS [SEQ ID NO: 303], 49.8. For IEGWWWQFYFHAKEDHS [SEQ ID NO: 255] the value was 136; for IEGWWWQFYFHPKEDHS [SEQ ID NO: 262], 124; for B3, 131. Turning to IEGWTWQFYVHPKGDHS [SEQ ID NO: 264], the Relative activity is 122. The figure for IEGPTFKQWQKSRTKHS [SEQ ID NO: 263] is 124; for IEGPTFKQWQYWRAKHS [SEQ ID NO: 275] it is 105.

As to IEGWPRQLYAHAKEDHS [SEQ ID NO: 280], the Relative activity is 95.6. The figure for IEGPTFKQWQRWRKMHS [SEQ ID NO: 253] is 144; for IEGPTFKQWQKWRKTHS [SEQ ID NO: 274] it is 105. For IEGWSWQFYFHAKGDHS [SEQ ID NO: 277] the value was 104; for IEGSYRERQQAARA [SEQ ID NO: 308], 35.2. IEGPTFEQWQHWRRGHS [SEQ ID NO: 285] yielded a Relative activity of 91.5. IEGWWWQLYFHAKDDHS [SEQ ID NO: 260]: the Relative activity amounted to 126. For IEGWPWQLYVHPEGEHS [SEQ ID NO: 259] the value was 129; for IEGPTFKQWQKLRRVHS [SEQ ID NO: 248], 155; for IEGPTFKQWQKLRRSHS [SEQ ID NO: 261], 125. For IEGWTWQFYALPRGDHS [SEQ ID NO: 297] the value was 63.2; for B4, 149; for IEGPSFTPWFHERRSHS [SEQ ID NO: 268], 110. The figure for B5 is 92.1; for IEGWWWQFYVHAKGDHS [SEQ ID NO: 270] it is 109.

Regarding IEGWWWQFYAHPQGDHS [SEQ ID NO: 281], the Relative activity turned out to be 95. The figure for IEGWPWQFYAHPQGDHS [SEQ ID NO: 289] is 80.3. The figure for IEGWTWQFYAHPQGDHS [SEQ ID NO: 317] is 24.2; for IEGWSWQFYAHPKGDHS [SEQ ID NO: 300] it is 52.6. The figure for IEGRTWQLYFHAKEEHS [SEQ ID NO: 278] is 102. Take IEGPTFKQWQKCRNMHS [SEQ ID NO: 247]: the Relative activity is 164.

Regarding IEGEALVFWWRVRGGHS [SEQ ID NO: 294], the Relative activity was determined as 73.9. In turn, IEGPTFKQWQVRQKTHS [SEQ ID NO: 276] displayed a Relative activity of 105. The figure for PSICAQIEGPTFKQWQTCMRAHS [SEQ ID NO: 256] is 133; for IEGPTFKQWQWLRRHHS [SEQ ID NO: 269] it is 109. The figure for IEGPTFKQWQMLRRHHS [SEQ ID NO: 328] is 12.5; for IEGPTFKQWQAWRKKHS [SEQ ID NO: 252] it is 146; for B6 it is 150. The figure for IEGPTFKQWQACLHSHS [SEQ ID NO: 266] is 114; for IEGYWWYASWAARA [SEQ ID NO: 288] it is 80.4. Turning to IEGQEPTRLRLQMDRHS [SEQ ID NO: 304], the Relative activity was found to be 48.3. Molecule IEGPTLRQRLAARA [SEQ ID NO: 299] gave a Relative activity of 57.3. The figure for IEGPTLRQWLAARA (Positive control of the phage-ELISA) [IEGPTLRQWLAARA (positive control)] is 150.
